From article PMC4901202, “Sld3-MCM Interaction Facilitated by Dbf4-Dependent Kinase Defines an Essential Step in Eukaryotic DNA Replication Initiation” (Frontiers in Microbiology, 2016)

Biological target: T1, 6His-Sld3 (budding yeast, UniProt P53135 1-668)
T1 construct: Sld3, budding yeast; Tag end read from the printed order 6His-SLD3; also called pET28a-SLD3; source: E. coli BL21 (DE3) CodonPlus RIL, purified (Ni2+ columns); not shown: 6His, N-terminal, kept
T1 sequence (looked up): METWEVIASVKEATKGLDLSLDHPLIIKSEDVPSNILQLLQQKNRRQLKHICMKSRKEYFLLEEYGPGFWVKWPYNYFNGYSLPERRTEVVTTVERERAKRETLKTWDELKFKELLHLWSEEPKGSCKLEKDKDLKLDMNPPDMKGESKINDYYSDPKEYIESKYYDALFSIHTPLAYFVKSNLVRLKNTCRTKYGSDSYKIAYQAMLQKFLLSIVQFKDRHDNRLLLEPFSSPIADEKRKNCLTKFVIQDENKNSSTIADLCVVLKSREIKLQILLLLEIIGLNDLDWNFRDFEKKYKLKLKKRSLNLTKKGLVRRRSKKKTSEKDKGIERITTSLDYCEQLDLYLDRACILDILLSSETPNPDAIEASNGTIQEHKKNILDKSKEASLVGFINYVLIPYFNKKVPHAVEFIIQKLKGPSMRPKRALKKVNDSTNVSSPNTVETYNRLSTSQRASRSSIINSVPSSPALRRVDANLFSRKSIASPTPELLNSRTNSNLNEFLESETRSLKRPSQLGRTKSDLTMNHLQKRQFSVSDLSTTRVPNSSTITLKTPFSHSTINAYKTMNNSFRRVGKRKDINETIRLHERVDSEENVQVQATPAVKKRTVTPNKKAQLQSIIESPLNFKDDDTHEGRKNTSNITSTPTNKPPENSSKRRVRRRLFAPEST
Assay: pull-down; 2 μg 6His-Sld3 and 5 μg GST-Mcm6 or GST-Mcm2 with glutathione-Sepharose beads; 40 mM Tris-HCl pH 7.5, 100 mM NaCl, 0.1 mM EDTA, 10% glycerol, 0.1% Triton X-100, 1 mM DTT, 1 mg/ml BSA; 1 h at 4°C; immunoblots with anti-His and anti-GST
Conditions: both partners purified

B1: GST-Mcm2N (1–390) (domain or fragment, budding yeast, UniProt P29469 1-390, looked up)
chain: MSDNRRRRREEDDSDSENELPPSSPQQHFRGGMNPVSSPIGSPDMINPEGDDNEVDDVPDIDEVEEQMNEVDLMDDNMYEDYAADHNRDRYDPDQVDDREQQELSLSERRRIDAQLNERDRLLRNVAYIDDEDEEQEGAAQLDEMGLPVQRRRRRRQYEDLENSDDDLLSDMDIDPLREELTLESLSNVKANSYSEWITQPNVSRTIARELKSFLLEYTDETGRSVYGARIRTLGEMNSESLEVNYRHLAESKAILALFLAKCPEEMLKIFDLVAMEATELHYPDYARIHSEIHVRISDFPTIYSLRELRESNLSSLVRVTGVVTRRTGVFPQLKYVKFNCLKCGSILGPFFQDSNEEIRISFCTNCKSKGPFRVNGEKTVYRNYQRVTL
notes: Mcm2, budding yeast, residues 1-390; Tag end read from the printed order GST-mcm2(1–390); also called GST-Mcm2 (1–390); pGEX-4T -1-mcm2(1–390); source: E. coli BL21 (DE3) CodonPlus RIL, purified as previously described (Quan et al., 2015); not shown: GST, N-terminal, kept
  binding result: binds
